By Kd is commonly meant the concentration at which binding is half-saturated.

In series [1] the target is T1, AlpZ (Streptomyces ambofaciens, UniProt Q6VMG9 1-237).
T1 sequence: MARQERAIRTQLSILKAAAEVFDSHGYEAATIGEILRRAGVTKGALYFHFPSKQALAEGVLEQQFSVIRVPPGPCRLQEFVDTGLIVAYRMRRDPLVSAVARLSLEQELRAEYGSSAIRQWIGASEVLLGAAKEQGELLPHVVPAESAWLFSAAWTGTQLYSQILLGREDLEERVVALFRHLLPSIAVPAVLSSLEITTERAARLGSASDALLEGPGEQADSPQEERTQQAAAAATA
As to the kind of experiment: switchSENSE; AlpZ 50 nM; kON 1.38e5 M-1 s-1, kOFF 1.05e-4 s-1 (printed rates give 0.76 nM, inconsistent with printed KD); switchSENSE: PE40 pH 7.4 (10 mM Na phosphate, 40 mM NaCl, 0.05% Tween20, 50 uM EDTA, 50 uM EGTA), 30 C; EMSA: 20 mM HEPES pH 7.6, 1 mM EDTA, 10 mM (NH4)2SO4, 1. To be noted: protein: recombinant; chain copies: 2; label: fluorescent nanolever on the switchSENSE chip; 40 bp duplex with 3' overhang 48 nt on strand 1, hybridized to chip nanolever. A general note: Mobility shift assays separate free from complexed probe on a gel.

The target of series [2] is T1, AlpZ. As to the kind of experiment: switchSENSE; no association observed; switchSENSE: PE40 pH 7.4 (10 mM Na phosphate, 40 mM NaCl, 0.05% Tween20, 50 uM EDTA, 50 uM EGTA), 30 C; EMSA: 20 mM HEPES pH 7.6, 1 mM EDTA, 10 mM (NH4)2SO4, 1. To be noted: protein: recombinant; chain copies: 2; label: fluorescent nanolever on the switchSENSE chip; 40 bp duplex with 3' overhang 48 nt on strand 1, hybridized to chip nanolever.

B1: nanoAREV dsoverhang (dsDNA)
DNA 1: CTCACATTGACAAACCGACTGTGCTGTTTTTTTATCAGGGATCAGCGTTCGATGCTTCCGACTAATCAGCCATATCAGCTTACGACTA
DNA 2: CCCTGATAAAAAAACAGCACAGTCGGTTTGTCAATGTGAG
Consider B1, for which the Kd with AlpZ [1] was 37.1 ± 3.3 nM.

B2: nanoControl dsoverhang (dsDNA)
DNA 1: GGGGGGTGTGAGAACGGGGTGTTCTGGTGTTTGCGCCGGAATCAGCGTTCGATGCTTCCGACTAATCAGCCATATCAGCTTACGACTA
DNA 2: TCCGGCGCAAACACCAGAACACCCCGTTCTCACACCCCCC
Turning to B2, the binding result with AlpZ [2] is reported as “no binding”.

Source of the values: article PMC7343708, “Molecular Dynamics to Elucidate the DNA-Binding Activity of AlpZ, a Member of the Gamma-Butyrolactone Receptor Family in Streptomyces ambofaciens”.
